Laboratory results published in article PMC6368398.

Tests used:
[1] = target: RPA-wt (RPA70-RPA32-RPA14 heterotrimer) (Saccharomyces cerevisiae, UniProt P22336;P26754;P26755 1-621;1-273;1-122); test: FRET
[2] = target: scRad52 (Saccharomyces cerevisiae, UniProt P06778 1-471); test: FRET
Chain of scRad52 (P06778 whole entry): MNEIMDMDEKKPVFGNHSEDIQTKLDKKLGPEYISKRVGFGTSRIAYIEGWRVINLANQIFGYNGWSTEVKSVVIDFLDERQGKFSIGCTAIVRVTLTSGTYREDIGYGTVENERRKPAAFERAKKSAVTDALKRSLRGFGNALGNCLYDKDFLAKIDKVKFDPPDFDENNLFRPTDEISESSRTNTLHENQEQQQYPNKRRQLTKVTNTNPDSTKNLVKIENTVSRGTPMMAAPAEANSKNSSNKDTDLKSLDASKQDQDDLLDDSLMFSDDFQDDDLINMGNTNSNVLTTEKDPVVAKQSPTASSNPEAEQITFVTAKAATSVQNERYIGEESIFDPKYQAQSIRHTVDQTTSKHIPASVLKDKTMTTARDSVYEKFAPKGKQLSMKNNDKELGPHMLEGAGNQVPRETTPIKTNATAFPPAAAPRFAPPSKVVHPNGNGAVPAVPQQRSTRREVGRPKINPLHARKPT

Chain of RPA-wt (RPA70-RPA32-RPA14 heterotrimer) (P22336 whole entry, chain 1 of 3): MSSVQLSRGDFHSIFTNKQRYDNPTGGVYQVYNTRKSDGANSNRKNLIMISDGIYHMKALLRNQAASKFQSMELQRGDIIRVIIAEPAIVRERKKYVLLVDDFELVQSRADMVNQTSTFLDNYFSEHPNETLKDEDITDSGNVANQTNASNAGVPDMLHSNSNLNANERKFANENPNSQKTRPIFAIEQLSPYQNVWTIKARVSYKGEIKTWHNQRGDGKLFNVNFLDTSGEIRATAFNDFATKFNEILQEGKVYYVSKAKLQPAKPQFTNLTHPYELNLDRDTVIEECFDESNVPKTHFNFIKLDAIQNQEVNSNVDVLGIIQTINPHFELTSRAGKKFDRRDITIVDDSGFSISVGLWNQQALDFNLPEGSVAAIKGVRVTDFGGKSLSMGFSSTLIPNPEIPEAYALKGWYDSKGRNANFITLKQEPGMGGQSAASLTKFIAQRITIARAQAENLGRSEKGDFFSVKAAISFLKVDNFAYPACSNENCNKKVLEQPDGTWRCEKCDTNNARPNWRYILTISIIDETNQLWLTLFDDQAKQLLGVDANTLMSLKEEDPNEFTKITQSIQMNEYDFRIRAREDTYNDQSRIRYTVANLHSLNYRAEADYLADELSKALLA
Chain of RPA-wt (RPA70-RPA32-RPA14 heterotrimer) (P26754 whole entry, chain 2 of 3): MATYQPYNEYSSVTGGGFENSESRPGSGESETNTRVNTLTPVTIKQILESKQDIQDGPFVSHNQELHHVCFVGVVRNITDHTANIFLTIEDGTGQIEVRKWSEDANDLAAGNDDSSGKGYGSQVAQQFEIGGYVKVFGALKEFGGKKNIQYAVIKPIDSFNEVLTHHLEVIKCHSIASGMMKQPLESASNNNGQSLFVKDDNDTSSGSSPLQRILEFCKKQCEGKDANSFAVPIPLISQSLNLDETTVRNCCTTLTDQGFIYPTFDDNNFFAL
Chain of RPA-wt (RPA70-RPA32-RPA14 heterotrimer) (P26755 whole entry, chain 3 of 3): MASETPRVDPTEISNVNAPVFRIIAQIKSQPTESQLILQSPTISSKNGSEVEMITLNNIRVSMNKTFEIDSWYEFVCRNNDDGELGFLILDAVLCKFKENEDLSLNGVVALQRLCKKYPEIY

TTTTTTTTTTTTTTTTTTTTTTTTTTTTTT (ssDNA) [Cy3-dT30-Cy5]
binding result [1]: binds
binding result [2]: binds
